Results as given in US10196454B2, “Anti-PMEL17 antibodies and immunoconjugates” (GENENTECH, INC., priority 2012, dated 2019).

How the values were obtained:
[1] = system: rat PMEL17; assay: Species cross-reactivity by FACS, 293S cells stably transfected with gD tagged PMEL17; assay type: binding; details: 10 μg/ml antibody
Procedure: (§1) Antibody 17A9 was tested to determine if it cross-reacts with PMEL17 from species other than human. […] All of the sequences include the signal sequence except for the cynomolgus monkey PMEL17. Residues that are identical among all four species are indicated by asterisks (*). In the region where the rat sequence has a deletion, residues that are identical among the remaining three species are indicated by a plus (+). Binding to each species of PMEL17 was determined by FACS analysis using 293S cells stably transfected with an N-terminal gD tagged PMEL17 (human, cynomolgus monkey, rat, or mouse PMEL17); stained with 10 μg/ml 17A9 antibody; and detected with R-Phycoerythrin conjugated goat anti-mouse antibody.

[2] = molecular target: T1, mouse PMEL17 (Mus musculus, UniProt Q60696); assay: as above; assay type: binding; details: 10 μg/ml antibody
T1 construct: gD tag (N); expressed in transfected cells
T1 sequence (Q60696 24-626): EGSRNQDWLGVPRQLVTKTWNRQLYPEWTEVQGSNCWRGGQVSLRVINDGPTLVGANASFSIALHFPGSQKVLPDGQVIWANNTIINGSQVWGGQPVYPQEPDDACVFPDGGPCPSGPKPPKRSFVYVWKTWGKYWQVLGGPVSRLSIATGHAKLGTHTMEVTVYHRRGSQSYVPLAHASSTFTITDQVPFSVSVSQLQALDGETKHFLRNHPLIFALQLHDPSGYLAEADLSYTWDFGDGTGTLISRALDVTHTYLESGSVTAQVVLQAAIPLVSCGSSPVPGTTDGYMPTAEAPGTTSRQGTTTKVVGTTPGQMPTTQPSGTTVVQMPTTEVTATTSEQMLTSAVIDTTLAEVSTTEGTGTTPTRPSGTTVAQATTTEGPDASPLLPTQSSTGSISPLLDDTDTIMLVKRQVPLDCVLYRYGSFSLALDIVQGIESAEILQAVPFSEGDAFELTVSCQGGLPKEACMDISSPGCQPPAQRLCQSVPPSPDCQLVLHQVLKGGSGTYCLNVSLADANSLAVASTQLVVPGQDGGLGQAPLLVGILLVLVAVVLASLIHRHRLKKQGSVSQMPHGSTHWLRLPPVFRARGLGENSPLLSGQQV
Procedure: as §1

[3] = system: 1300mel melanoma cells; assay: Internalization of anti-PMEL17 antibody, co-staining with lysosomal marker LAMP1; assay type: cell-based
[4] = system: human PMEL17; assay: Monoclonal antibody epitope mapping with PMEL17 deletion mutants (immunoblot, FACS); assay type: binding; details: N-terminal deletions by immunoblot, C-terminal deletions in 293 cells by FACS
Procedure: All the constructs for epitope mapping were made by PCR amplification of each fragment and subcloning into either pRKtkneo vector with an N-terminal gD tag, or pRKtkneo vector with an N-terminal gD tag and a C-terminal GPI anchor. Transfections were performed using FuGene 6 (Roche Applied Science), and empty vector was used as control. Full-length human PMEL17 was subcloned into pRKtkneo vector with an N-terminal gD tag.
A signal sequence and a gD epitope tag were fused to the N-terminal sequence of a series of deletion mutants, which were then expressed in mammalian cells and the lysates analyzed by immuoblotting for reactivity with 17A9 or 77E6. The N-terminal deletions tested included Δ100, Δ255, Δ292, Δ315, Δ444, Δ515, and Δ567.
In addition, C-terminal deletions with an N-terminal gD tag and a C-terminal GPI anchor were transiently transfected into 293 cells and analyzed for antibody binding by FACS. The C-terminal deletions tested included PMEL1725-125, PMEL1725-105, PMEL1725-85, PMEL1725-65, and PMEL1725-45. Finally, a PMEL17 fragment comprising the region from amino acid 515 through the transmembrane domain, but lacking the cytoplasmic region (“Δ515-C”) and a PMEL17 fragment comprising just the cytoplasmic domain with an N-terminal gD tag and a C-terminal GPI anchor were analyzed by immuoblotting for reactivity with 77E6.

[5] = molecular target: T2, PMEL17 (Homo sapiens, UniProt P40967); assay: Immunohistochemistry of human melanoma tissue specimens; design: The expression of PMEL17 was evaluated across a panel of human melanoma tissue specimines by immunohistochemistry; from tissue; host or cells: 58 human melanoma specimens (30 primary, 28 metastatic); details: 58 specimens (30 primary, 28 metastatic)
T2 sequence (P40967 25-661): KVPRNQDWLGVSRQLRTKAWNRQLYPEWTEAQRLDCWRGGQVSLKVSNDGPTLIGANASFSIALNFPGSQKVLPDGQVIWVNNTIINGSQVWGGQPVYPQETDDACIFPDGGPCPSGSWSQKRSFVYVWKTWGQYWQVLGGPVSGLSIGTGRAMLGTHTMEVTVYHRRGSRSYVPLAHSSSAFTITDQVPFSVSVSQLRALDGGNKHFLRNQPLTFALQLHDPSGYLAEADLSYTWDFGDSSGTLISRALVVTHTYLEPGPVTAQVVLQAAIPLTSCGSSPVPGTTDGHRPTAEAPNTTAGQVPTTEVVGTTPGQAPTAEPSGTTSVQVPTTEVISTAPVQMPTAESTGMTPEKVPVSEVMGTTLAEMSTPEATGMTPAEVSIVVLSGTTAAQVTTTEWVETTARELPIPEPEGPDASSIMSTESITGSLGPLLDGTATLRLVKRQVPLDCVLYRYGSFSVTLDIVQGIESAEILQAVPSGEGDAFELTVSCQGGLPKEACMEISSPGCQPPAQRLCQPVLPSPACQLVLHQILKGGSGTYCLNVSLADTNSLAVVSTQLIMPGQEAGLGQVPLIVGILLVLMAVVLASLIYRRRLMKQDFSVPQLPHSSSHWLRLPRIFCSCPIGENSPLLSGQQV
Procedure: To assess the potential liability of targeting PMEL17 on normal melanocytes, the level of expression of this target in normal human skin was evaluated by immunohistochemistry. Immunohistochemistry (IHC) was performed on 4 μm thick formalin-fixed paraffin embedded tissue sections mounted on glass slides. All IHC steps were carried out on the Ventana Discovery XT (Ventana Medical Systems; Tucson, Ariz.) autostainer. Pretreatment was done with Cell Conditioner 1, standard time. Primary antibody, PMEL17 clone 31D1 was used at a concentration of 10 μg/ml and was incubated on slides for 1 hour at 37° C. Ventana Mouse OmniMap (Ventana Medical Systems; AZ) was used as the detection system. […]
The expression of PMEL17 was evaluated across a panel of human melanoma tissue specimines by immunohistochemistry substantially as described above, using both 17A9 and 31D1. Staining was scored on an arbitrary scale ranging from zero, for absent, to 3+ for most intense: • 0 (negative): very weak or no staining in >90% of melanoma cells • 1+(mild): predominant staining pattern is weak • 2+(moderate): predominant staining pattern is moderately strong in the majority (>50%) of melanoma cells • 3+(strong): predominant staining pattern is strong in the majority (>50%) of melanoma cells Exemplary staining for each of the levels of the scale is shown in FIG. 7A, left panels.

B1: 17A9 (antibody, listed as Mus musculus, V domains shown)
VH: EVQLQQSGPELVKPGASMKISCKSSGYSFTRYTMNWVKQSHGKNLEWIGVINPYNGGTVYNQKFKGKATLTVDKSSSTAYMELLSLTSEDSAVYYCARTDYDGYAMDYWGQGTSVTVSS
VL: DVQITQSPSYLAASPGETITINCRATKSISKYLAWYQEQPGKTNNLLIYSGSTLQSGIPSRFSGSGSGTDFTLTISSLEPEDFAMYYCQQHNEYPYTFGSGTKLEIK
- binding to rat PMEL17 by FACS [1]: bind
- binding to mouse PMEL17 by FACS [2]: bind
- overlap of antibody and LAMP1 staining within the cells ([3]; 2 μg/ml, 2 hours or 20 hours, 37° C.): considerable overlap
- uptake into additional PMEL17+ melanoma cell lines ([3]; 526mel, SK-MEL-5, UACC257): Rapid uptake
- binding to PMEL17 deletion mutants [4]: bound only to PMEL1725-125
- binding to PMEL17 deletion mutants ([4]; listed as 17A6): bound only to full-length PMEL17
- human melanoma specimens PMEL17+ when detected with the antibody [5]: 64%
